Experimental findings from patent publication US20260258115A1 (MAPP BIOPHARMACEUTICAL, published 2026) are described below.

For assay [1], the target named is RSV postfusion F (postF), F ΔFP (Respiratory Syncytial Virus, UniProt P03420 26-513). Kind of assay: BLI, IgG on anti-human IgG sensor, 100 nM antigen, 1:1 fit.
Assay [2] addresses RSV prefusion F (preF), DS-Cav1 (Respiratory Syncytial Virus, UniProt P03420 26-513). The description is as above.
Another assay concerns the target RSV F on RSV-A2 virus (Respiratory Syncytial Virus (RSV-A2), UniProt P03420 26-574). Kind of assay: cell-based or functional assay.

One may read the Kd as the constant that tells how readily two partners part at equilibrium. A low value points to a tighter complex.

B1: ADI-41496 (antibody, V domains shown)
VH: QVQLVQSGAEVKKPGASVKVSCKASGYTFTSDDINWVRQATGQGLEWMGWMNPNSGDTGYAQKFQGRVTMTRDTSISTAYMELSSLRSEDTAVYYCARVRIQCSGGRCSYWFFDLWGRGTLVTVSS
VL: QSALTQPASVSGSPGQSITISCIGTSSDVGNYNLVSWYQHHPGKAPKVMIYEVNERPSGVSNRFSGSKSGNTASLTISGLQAEDEADYYCCSYAGRSTWVFGGGTKLTVL
Consider B1, for which the figures for the Kd in assay [1] and in assay [2] were 1.37 nM and 1.65 nM, respectively. The “Neutralization IC50 (RSV subtype A)” value with RSV F on RSV-A2 virus is > 25 µg/mL.

B2: ADI-41498 (antibody, V domains shown)
VH: EVQLLESGGGLVKPGGSLRLSCAASGFIFSDYAMNWVRQTPGKGLEWVSSISDSSAYKYYTGSVSGRFTISRDNAKNSLYLQMNDLRPEDTAVFYCARGQWRCSGASCYSPFDSWGQGTLVTVSS
VL: SYELTQPPSVSVAPGQTARIPCGGNNIESKNVHWYQQKPGQAPVLVVYDDSDRPSGIPERFSGSNSGSTATLTISRVEAGDEADYYCHVWHRSGDLREVFGSGTKVTVL
notes: also called Ab 778; Antibody Number 778
As for B2, the Kd in assay [1] was 0.22 nM; in assay [2], 1.22 nM. Moreover, the “Neutralization IC50 (RSV subtype A)” value with RSV F on RSV-A2 virus was > 25 µg/mL.

B3: ADI-41532 (antibody, V domains shown)
VH: QVQLVQSGAEVKKPGESLKISCKGSGYSFTSSWIGWVRQMPGKGLEWMGIIYPGDSDTRYSPSIQGRVTISADKSITTAYLQWSSLKASDTATYYCAKFGGYADAYFYHGMDVWGQGTTVTVSS
VL: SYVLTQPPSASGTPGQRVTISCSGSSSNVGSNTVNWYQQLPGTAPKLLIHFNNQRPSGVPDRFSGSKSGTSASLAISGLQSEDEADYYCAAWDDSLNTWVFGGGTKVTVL
For the molecule B3, the Kd in assay [1] was determined as 0.392 nM; in assay [2] it was 1.92 nM. Also, the “Neutralization IC50 (RSV subtype A)” value with RSV F on RSV-A2 virus was > 25 µg/mL.

B4: ADI-41527 (antibody, V domains shown)
VH: EVQLLESGGGLVQPGGSLRLSCAASGFTFTSYWMSWVRQAPGQGLEWVATIKQDGSEKYYVDSVKGRFTISRDNAKNSLYLQMNSLGAEDTAVYYCARDMYCSTTTCYFFETYYYNGMDVWGQGTTVTVSS
VL: DIRLTQSPSSVSASVGDRVTITCRASQVTSTWLAWYQQNPGKAPKLLIYAASRLQSGVPSRFSGSGSGTEFTLTISSLQPEDFATYYCQQANSFPLTFGGGTKVEIK
notes: also called Ab 799; Antibody Number 799
Consider B4, for which the Kd in assay [1] worked out at 0.337 nM; in assay [2], 0.712 nM. Also, the “Neutralization IC50 (RSV subtype A)” value with RSV F on RSV-A2 virus was > 25 µg/mL.

B5: ADI-41530 (antibody, V domains shown)
VH: QVQLVESGAEVKKPGASVKVSCRASGYTFSAYDINWVRQAPGQGLEWVGWMNPNSGNTGYALRFQGRVTMTRDTSINTAYMELSSLRSDDTAVYYCAAQLWYPNWGQGTLVTVSS
VL: SYELTQPPSVSVGLGQTASITCGGNNIGSKSVHWYQQKPGQAPTLVIYRDTNRPSGIPERFSGSNSENTATLTISRAQAGDEADFYCQVSDNYSWVFGGGTKLTVL
notes: also called Ab 802; Antibody Number 802
As for B5, the Kd in assay [1] came out at 0.355 nM; in assay [2] it was 1.91 nM. Besides, the “Neutralization IC50 (RSV subtype A)” value in the assay with RSV F on RSV-A2 virus is > 25 µg/mL.

B6: ADI-41503 (antibody, V domains shown)
VH: EVQLLESGGGLVQPGGSLRLSCAASGFTFSDFPLSWVRQAPGKGLVWVSAISSSGGDTYYADSVKGRFTISRDSSKNALYLQMNSLRAEDTAVYYCAKGQELLRPYYYGMDVWGQGTTVTVSS
VL: QSALIQPASVSGSPGQSITISCTGTSSDVGGYNFVSWYQQHPGKAPKLMIFEVSNRPSGVSHRFSGSKSGNTASLTISGLQAEDEADYYCSSCTSRFTYVFGTGTKLTVL
Consider B6, for which the figures for the Kd in assay [1] and in assay [2] were 0.493 nM and 3.14 nM, respectively. Besides, the “Neutralization IC50 (RSV subtype A)” value with RSV F on RSV-A2 virus is > 25 µg/mL.

B7: ADI-41526 (antibody, V domains shown)
VH: QVQLVQSGAEVKKPGASVKVSCEASGYTFTDYYMHWVRQAPGQGLEWMGWINPNSGVTKIAQNFQGRVTMTRDTSITTAYMDLSRLRSDDTAVYYCARVVDGDYDNWFDFWGQGTLVTVSS
VL: SYVLTQPPSASGTPGQRVTISCSGSTSNIGTNTVNWYQQPPGMAPKLLIYANNQRPSGVPDRFSGSKSGTSASLAISGLQSEDEADYHCAVWDDSLPGWVFGGGTKLTVL
In the case of B7, the Kd in assay [1] worked out at 0.336 nM; in assay [2] it was 0.301 nM. Besides, in the assay with RSV F on RSV-A2 virus, the “Neutralization IC50 (RSV subtype A)” value was > 25 µg/mL.

B8: ADI-41508 (antibody, V domains shown)
VH: QVQLVQSGAEVRKPGASVKVSCKASGYGFRSYDLTWVRQAPGKGLEWVGWISAYSGGTNYAQTLQGRVTMTTDTSTSTAYMELRSLGPDDTAVYYCARAGLYGSGSPDGFDSWGQGTLVTVSS
VL: SYELTQPPSVSVSPGQTASITCSGDKLGDKYASWYQQRPGQSPVLVISQDTKRPSGIPERFSGSTSGNTAILTISGTQAMDEADYYCLAWDSSTAWVFGGGTKLTVL
notes: also called Ab 786; Antibody Number 786
As for B8, the results for the Kd in assay [1] and in assay [2] were 0.555 nM and 4.15 nM, respectively. In the assay with RSV F on RSV-A2 virus, the “Neutralization IC50 (RSV subtype A)” value is 0.1 µg/mL.

B9: ADI-41494 (antibody, V domains shown)
VH: EVQLVESGGGLVQPGRSLRLSCTTSGFTFGDYAVTWVRQAPGKGLEWIGIMKSKTYRGTTDYAASLRGRFSISRDDSKSIAYLQMTSLKSEDTGVYYCVRGHDYGDPFDYWGQGTLVTVSS
VL: QSVLTQPASVSGSPGQSITISCTGGSSDVGYYNYVSWYQQHPGKAPKLLIYDVNNRPSGVSDRFSGSKSGNTASLTISGLQPEDEADYYCSSYTRSRTWVFGGGTKLTVL
notes: also called Ab 774; Antibody Number 774
Consider B9, for which the Kd in assay [1] was found to be 0.44 nM; in assay [2], 2.61 nM. The “Neutralization IC50 (RSV subtype A)” value with RSV F on RSV-A2 virus was > 25 µg/mL.

B10: ADI-41499 (antibody, V domains shown)
VH: EVQLVESGGVVVQPGGSLRLSCAASGFSFDDYTMYWVRQAPEKGLEWISLISWNGGVTYYPDSVKGRFTVSRDNNKNSLYLQMDSLRPEDSAFYYCAKESLESSGHFLDYWGQGTLVTVSS
VL: QPVLTQSRSVSGSPGQSVTISCIGTNSDVGGYHYVSWFQHHPGKAPKLMIYDVSRRPSGVPARFSGSKSGNTASLSISGLRAEDEADYYCCSFAGTYTPYVFGTGTKLTVL
Take B10: the Kd in assay [1] amounted to 0.297 nM; in assay [2] it was 1.99 nM. The “Neutralization IC50 (RSV subtype A)” value with RSV F on RSV-A2 virus is > 25 µg/mL.

B11: ADI-41528 (antibody, V domains shown)
VH: EVQLVESGGGVVQPGRSLRLSCAASGFTFSSYAMHWVRQAPGKGLEWVAVISFDGSSDYYADSVKGRFTISRDSSKNTLYLRMNSLRAEDTAVYYCARRAVEYSIYNNDAFDVWGQGTTVTVSS
VL: SYELTQPPSVSVSPGQTASITCSGDKLGNKFTFWYQQKSGQSPVLVIYQETKRPSGIPERFSGSNSGNTATLTISGTQSMDEADYYCQAWDSSTAFFGGGTKLTVL
notes: also called Ab 800; Antibody Number 800
On to B11, for which the Kd in assay [1] amounted to 0.348 nM; in assay [2], 2.28 nM. Moreover, in the assay with RSV F on RSV-A2 virus, the “Neutralization IC50 (RSV subtype A)” value was > 25 µg/mL.

B12: ADI-41502 (antibody, V domains shown)
VH: QVQLVQSGAEVKKPGSSVKVSCKASGGPFSSDAMSWVRQAPGQGLEWMGGIIPILGSATYAQKFKGRVTIAADESTSTSYMELSGLKYEDTAVYYCARPFYDPLTGYFDTFNVWGQGTTVTVSS
VL: QSVLTQPRSVPGSPGQSVTISCTGTSGDVGGYNYVSWYQQHPGKAPKLVIYDVTKRPSGVPDRFSGSKSGNRASLTISGLQAEDEADYYCCSYAGSQTGYVFGTGTKVTVL
notes: also called Ab 781; Antibody Number 781
B12: the Kd came to 0.308 nM in assay [1] and 1.34 nM in assay [2]. In addition, the “Neutralization IC50 (RSV subtype A)” value in the assay with RSV F on RSV-A2 virus is > 25 µg/mL.

B13: ADI-41531 (antibody, V domains shown)
VH: EVQLLESGGDLVQPGGSLRLSCAASGFTFFSYALNWVRRTPGKGLEWVSGISGSGGSTYYADSVKGRFTISRDNSKSTLYLQMNSLKVDDTAVYFCAKDFQHDYGDPYRSYYFDHWGQGTLVTVSS
VL: DIQLTQSPSSLAASVGDRVTITCQASRDIRKSLNWYQVKPGKAPKLLISDASYLETGVPPRFSGSGFGTHFTFTISSLQPEDIATYYCQQYDNLPPPTFGGGTKVDIK
notes: also called Ab 803; Antibody Number 803
As to B13, the figures for the Kd in assay [1] and in assay [2] were 0.377 nM and 2.08 nM, respectively. Moreover, the “Neutralization IC50 (RSV subtype A)” value in the assay with RSV F on RSV-A2 virus was > 25 µg/mL.

B14: ADI-41495 (antibody, V domains shown)
VH: QVQLVQSGGGLVEPGGSLRLSCAASGFTFSNTWMNWVRQAPGKGLTWVGRIKRKTDFGTSDYAAPVKGRFTISRDDSKNMVFLQMNSLKIEDTGVYYCTTHPRPYLDTTAVVYWGQGTLVTVSS
VL: QPVLTQPHSVSESPGKTVTISCIGSSGSITSNYVQWFQQRPGSAPTTVIYEDDQRPSGVPDRFSGSIDSSSNSASLTISGLKTEDEADYYCQSYHHTNPWVFGGGTKLTVL
Turning to B14, the Kd is 57.3 nM in assay [1] and 77.2 nM in assay [2]. Further, the “Neutralization IC50 (RSV subtype A)” value with RSV F on RSV-A2 virus is > 25 µg/mL.

B15: ADI-41504 (antibody, V domains shown)
VH: EVQLLESGPGLLKTSETLSLTCTVSDGSISGYYWTWIRQPPGKGLECIGYISYSGSTNYSPSLKSRVTISVDTSKNQFSLKLSSVTAADTAVYYCAKIGGYCNPTKCYGWFDPWGQGTLVTVSS
VL: QPVLTQPPSVSGAPGQRVTISCTGSSSNIGAGYDVHWYQQLPGTAPKLLIFGNTNRPSGVPDRFSGSKSGTSASLAITGLQAEDEAAYYCQSYDSSLFYVVLGGGTKLTVL
notes: also called Ab 783; Antibody Number 783
B15: the Kd was 0.508 nM in assay [1] and 2.8 nM in assay [2]. In the assay with RSV F on RSV-A2 virus, the “Neutralization IC50 (RSV subtype A)” value is > 25 µg/mL.

B16: ADI-41497 (antibody, V domains shown)
VH: QVQLVESGGGVVQPGRSLRLSCAASGFTFSNHAMHWVRQAPGKGLEWLSFISYDGGVNFYRDSVKGRFTISRDNSKNTLYLQMSSLRPEDTAVYYCARDRVGRVVGASYYLDYWGRGALVTVSS
VL: QSVVTQPPSVSVAPGQTASITCGGKHIGSKSVHWYQQKPGQSPVLVVHDDSDRPSGILERFSGSNSGNTATLTINRVEAGDEADYYCQVWDNASDHPYVFGPGTKVTVL
As for B16, the values for the Kd in assay [1] and in assay [2] were 0.268 nM and 1.44 nM, respectively. Also, the “Neutralization IC50 (RSV subtype A)” value with RSV F on RSV-A2 virus was > 25 µg/mL.

B17: ADI-41529 (antibody, V domains shown)
VH: EVQLVQSGAEVRRPGSSVKVSCKASGGTLDTDSISWVRQVPGQGLVWVGGVIPILGSVVYARKFQGRVTITADGSTSTAYMELRSLRSEDTAMYYCASQFYDFRRGYFDAFDIWGQGTTVTVSS
VL: ETTLTQSPGILSLSPGERATLSCRATQTVISNYINWYQQKPGQAPRLLIYGASSRATGIPDRFSGSGSGTDFTLTISRLEPEDFAVYYCQRYDSSPPGFTFGPGTKVDIK
Turning to B17, the values for the Kd in assay [1] and in assay [2] were 0.351 nM and 1.03 nM, respectively. Also, the “Neutralization IC50 (RSV subtype A)” value with RSV F on RSV-A2 virus was > 25 µg/mL.
